The nature of the series: yeast display, Sf9 membrane polyspecificity reagent, FACS + sequencing; frameworks hold sequencing errors. In short, it runs like this:
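Polyreactivity labels are assigned by the sorting gate from which each nanobody was recovered. The gates were low and high (top ~1%), set on anti-HA fluorescence for expression and streptavidin fluorescence for reagent binding. Before sorting, galactose-induced (36–48 hours) yeast display cells were stained for 1 hour at 4 °C with 10% biotinylated, detergent-solubilized Sf9 membrane reagent.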
“QVQLVESGGGLVQAGGSLRLSCAASGFIFGYYAMGWYRQAPGKERELVAAISWSGVSTYYADSVKGRFTISSDNAKNTVDLQMNSLKPEDTAVYYCAVGYVLTGVFQARFDYWGQGTQVTVSS”: the “polyreactivity (PSR sort gate)” value is reported as “high polyreactivity”.
The entry for “QVQLVESGGGLVQAGGSLRLSCAASGFIFGYYAMGWYRQAPRKERELVAAISQSTGSTYYADSVKGRFSNSRDNAKNTVYLQMNSLKPEDTAVYYCNAEGPEVTTWGYVYWDWGYGYWGQGTQVTVSS” is “low polyreactivity”; for “QVQLVESGGGLVQAGGSLRLSCAASGFIFGYYTMGWYRQAPGKERELVASISSRGGSTFYADSVKGRFTISRDNAKNTVYLQMNSLKPEDTAVYYCAVRRGVYYYPYYYWGQGTQVTVSS” it is “high polyreactivity”; for “QVQLVESGGGLVQAGGSLRLSCAASGFIFGYYTMGWYRQAPGKEREVVAAISSSGGRTYYADSVKGRFTISRDNAKNTVYLQMNSLKPEDTAVYYCAKQNRGSEPAYDYWGQGTQVTVSS” it is “low polyreactivity”.
Take “QVQLVESGGGLVQAGGSLRLSCAASGFIFGYYVMGWSRQAPGKERELVAAISGSGGRTYYADSVKGRFTISRDNAKNTVYLQMNSLKPEDTAVYYCNAVAFYRDYNYWGQGTQVTVSS”: the “polyreactivity (PSR sort gate)” value is listed as “high polyreactivity”.
The value for “QVQLVESGGGLVQAGGSLRLSCAASGFIFHLYAMGWYRQAPGKERDLVAAIRISDGSTYYADSVKGRFTISRDNAKNSVYLQMNRLKPEDTAVYYCNVVYRYGGYNYWGQGTQVTVSS” was “high polyreactivity”.
The value for “QVQLVESGGGLVQAGGSLRLSCAASGFIFHSYDMGWYRPAPRKERELVASISRGGGSTYYADSVKGRFTISRDNAMNTVYLQMNSLKPEDTAVYDCSARVYSLGYGGDYWGQGTQVTVSS” was “high polyreactivity”.
The entry for “QVQLVESGGGLVQAGGSLRLSCAASGFIFHVYAMGWYRQAPGKEREFVAGISWRGGRTYYADSVKGRFTISRDNAKNTVYLLMNSLKPEDTAVYYCAALGLNAGGKFDYWGQGTQVTVSS” is “high polyreactivity”; for “QVQLVESGGGLVQAGGSLRLSCAASGFIFHVYAMGWYRQAPGKERELVARITSSGGNTFYADSVKGRFTISRDNAKNTVYLQMNSLKPEDTAVYYCAKSSIYTDYDYWGQGSQVTVSS” it is “low polyreactivity”; for “QVQLVESGGGLVQAGGSLRLSCAASGFIFIEYTMGWYRQAPGKERQLVAAISSGGNTYYADSVKGRFTISRDNAKNTVYLQMNSLKPEDTAVYYCNADNYAFYTQRPLDGSATYDYWGQGTQVTVSS” it is “low polyreactivity”.
“QVQLVESGGGLVQAGGSLRLSCAASGFIFIKYAMRCYRQAPGKERELVAAISFRGGRTNYADSVKGRFTISRDNAKNTVYLQMNSLKPEDTAVYYCAAETRDYSEGYYWGQGTQVTVSS”: the “polyreactivity (PSR sort gate)” value was “high polyreactivity”.
The entry for “QVQLVESGGGLVQAGGSLRLSCAASGFIFIPNTMGWYRQAPGKERELVASGSTYYADSVKGRFTISRDNAKNTVYLQLNSLKPEDTAVYYCAARYHRYSSEFDYWGQGTQVTVSS” is “low polyreactivity”; for “QVQLVESGGGLVQAGGSLRLSCAASGFIFIQNDMGWYRQAPGKERAFFASISKDGGRTYYADSVKGRFTISRDNAKNTVYLQMNSLKPEDTAVYYCNTYPRGNWGNFVEQDYDYWGQGTQVTVSS” it is “low polyreactivity”.
The value for “QVQLVESGGGLVQAGGSLRLSCAASGFIFISNAMGWYRQAPGKERELVARISDTDRTHYADSVKGRFTISRDNAKNTVYLQMNSLKPEDTAVYYCATDQSLLDKVYYDVQYDYWGQGTQVTVSS” was “low polyreactivity”.
In the case of “QVQLVESGGGLVQAGGSLRLSCAASGFIFKGNAMGWSRQAPGKERELVAAISSRGGSTYYADSVKGRFTISRDNAKNTVYLQMNSLKPEDTAVYYCATRVYWRNDYWGQGTQVTVSS”, the “polyreactivity (PSR sort gate)” value is “high polyreactivity”.
For “QVQLVESGGGLVQAGGSLRLSCAASGFIFKINAMGWYRQAPGKERELVAAINWTGGNTYYADSVKGRFTISRDNAKNTVYLQMNSLKPEDTAVYYCAAEFDVGWTWDYYWGQGTQVTVSS”, the “polyreactivity (PSR sort gate)” value was “high polyreactivity”.
For “QVQLVESGGGLVQAGGSLRLSCAASGFIFKPNALGWYRQAPGKERELVAAITWGGDNTYYADSVKGRFTISRDNAKNTVYLQMNSLKPEDSAVYYCAAEWKFHSDASYIYDYWGQGTQVTVSS”, the “polyreactivity (PSR sort gate)” value was “high polyreactivity”.
The value for “QVQLVESGGGLVQAGGSLRLSCAASGFIFKSNAMGWDRQAPGKERELVAAISTSGGSTYYADSVKGRFTISRDNAKNTVYLQMNSLKPEDTAVYYCAKRPSRYYYRLDYWGQGTQVTVSS” was “high polyreactivity”.
The value for “QVQLVESGGGLVQAGGSLRLSCAASGFIFKSYAMGWYRPAPGKERELVAAISSGGTTNYADSVKGRFTISRDNANNTVYLQMNSLKPEDTAVYYCAAALHGHTFPFYYWGHGTQVTVSS” was “low polyreactivity”.
The entry for “QVQLVESGGGLVQAGGSLRLSCAASGFIFKSYAMGWYRQAPGQERELVAAISRSGSSTYYADSVKGRFTISRDNAKNTVYLLMNSLKPEDTAVYYCAKKGYRFIHFGYDYWGQGTQVTVSS” is “high polyreactivity”.
Regarding “QVQLVESGGGLVQAGGSLRLSCAASGFIFKSYTMGWYRQAPGKERELVAAITWSGDSTYADSVKGRFTISRDNAKNTVYLQMNSLKPEDTAVYYCAKNYAYLYYSWGQGTQVTVSS”, the “polyreactivity (PSR sort gate)” value is reported as “low polyreactivity”.
For “QVQLVESGGGLVQAGGSLRLSCAASGFIFKYNVMGWYRQAPGKERELVAAIRGSGRTYYADSVKGRFTISRDNAKNTVYLQMNSLKPEDTAVYYCGADIQAYASRVYAGFDYWGQGTQVTVSS”, the “polyreactivity (PSR sort gate)” value was “low polyreactivity”.
As to “QVQLVESGGGLVQAGGSLRLSCAASGFIFKYYAMGWYRHAPGKERELVAAISRRGGSTFYADSVKGRFTISRDNAKNTVYLQMNSLKPEDTAVYYCAKYPQTLPIDVWTWIHDYWGQGTQVTVSS”, the “polyreactivity (PSR sort gate)” value is reported as “high polyreactivity”.
The entry for “QVQLVESGGGLVQAGGSLRLSCAASGFIFLFNAMGWYRQAPGKERELVATNSSGGSTYYADSVKGRFTISLDNAKNTVYLQMTSLKPEDTAVYYCNAGPARTVYAQSSYVLYDYWGQGTQVTVSS” is “low polyreactivity”; for “QVQLVESGGGLVQAGGSLRLSCAASGFIFLGNAMGWYRPAPGKERDLVAAISSGGSTYADSVKGRFTISRDNAKYTVYLQMNSLKPEDTAVYYCAVDRAFRAQNYHEYDYWGQGTQVTVSS” it is “low polyreactivity”; for “QVQLVESGGGLVQAGGSLRLSCAASGFIFLHYAMGWYRKAPGKERELVAGIDSSVDSTFYADSVKGRFTISRDNAKNTVYLQMNSLKPEDTAVYYCAKDPDLDYYLYYYWGQGTQVTVSS” it is “low polyreactivity”.
“QVQLVESGGGLVQAGGSLRLSCAASGFIFLLYAMGWYRQAPGKERELVAAIDTDTSTNYADSVKGRFTISRDNAKNTVYLQMNSLKPEDTAVYYCAREEPGVSLGVDYDYWGQGTQVTVSS”: the “polyreactivity (PSR sort gate)” value is on record as “low polyreactivity”.
As to “QVQLVESGGGLVQAGGSLRLSCAASGFIFLPYVMGWYRQAPGKERELVAAISGGGGITYYADSVKGRFTISRDNAKNTVYLQMNSLKPEDTAVYYCAADDLHWLNSKRYSGRDYWGQGTQVTVSS”, the “polyreactivity (PSR sort gate)” value is “low polyreactivity”.
In the case of “QVQLVESGGGLVQAGGSLRLSCAASGFIFLWNAMAWYRQAPGKELDLVAAINRGTSTNYADSVKGRFTISRDNAKNTVYLQMNSLKPEDTAVYYCAVSVLPWQMYSESYAEYDYWGQGTQVTVSS”, the “polyreactivity (PSR sort gate)” value is recorded as “low polyreactivity”.
The entry for “QVQLVESGGGLVQAGGSLRLSCAASGFIFLYAMGWYRQAPGKERELVAAISWSDTSTYYADSVKGRFTISRDNAKNTVYLQMNSLKPEDTAVYYCNAETWNYGDYDYWGQGTQVTVSS” is “high polyreactivity”; for “QVQLVESGGGLVQAGGSLRLSCAASGFIFLYYAMGWYRQAPGKERELVAAITTRGGRTYYADSVKGRFTISRDNAKNTVYLQMNSLKPEDTAVYYCAVQVSWSYYRYGYWGQGTQVTVSS” it is “low polyreactivity”; for “QVQLVESGGGLVQAGGSLRLSCAASGFIFNAYAMGWYRQAPGKERELVAAITFRTTSTYYADSVKGRFTISRDNAKNTVYLQMNSLKPEDTAVYYCAALWIYSGWRYDYWGQGTQVTVSS” it is “high polyreactivity”.
Consider “QVQLVESGGGLVQAGGSLRLSCAASGFIFNINTMGWYRQAPGKERELVAAITLNGDGTYYADSVKGRFTISRDNAKNTVDIQMNSLNPADTAVDYCNAATWYYYYVSRETYYFDVDYWGQGTQVTVSS”, for which the “polyreactivity (PSR sort gate)” value was “low polyreactivity”.
The entry for “QVQLVESGGGLVQAGGSLRLSCAASGFIFNLYAMGWYRQAPGKERELVATITNRGGITHYADSVKGRFTISRDNAKNTVYLQMNSLKPEDSAVYYCAVKVYRRSGGYEYWGQGTQVTVSS” is “low polyreactivity”; for “QVQLVESGGGLVQAGGSLRLSCAASGFIFNNYAMGWSRQAPGKERELVAAITWSGGGTYYADSVKGRFTISRDNAKNTVYLQMNSLKPEDSAVYYCAVYYPAYLEEYWGQGTQVTVSS” it is “high polyreactivity”.
Consider “QVQLVESGGGLVQAGGSLRLSCAASGFIFNNYGMGWSRQAPGKERELVATISRGASTNYADSVKGRFTISRDNAKNTVYLQMNSLKPEDTAVYYCAKDYGDWGQGTQVTVSS”, for which the “polyreactivity (PSR sort gate)” value is listed as “low polyreactivity”.
As to “QVQLVESGGGLVQAGGSLRLSCAASGFIFNRNAMGWYRQAPGKERELVAAITWSASRTYYADSVKGRFTISRDNAKNTVYLQMNSLKPEDTAVSYCAARRYRGYDYWGQGTQVTVSS”, the “polyreactivity (PSR sort gate)” value is given as “high polyreactivity”.
Take “QVQLVESGGGLVQAGGSLRLSCAASGFIFNSYAMGWYRPAPGKERELVAVISWSGGTTYYADSVKGRFTISRDNAKNTVFLQMNSLKPEDTAVYYCAASSYRSQYGYWGQGTQVTVSS”: the “polyreactivity (PSR sort gate)” value is reported as “high polyreactivity”.
“QVQLVESGGGLVQAGGSLRLSCAASGFIFNSYGMGWYRQAPGKERELVAAITKSGGSTYYADSVKGRFTISRDNAKNTVYLQMNSLKPEDTAVYYCAARAYRYSVYRGDYWGQGTQVTVSS”: the “polyreactivity (PSR sort gate)” value is “high polyreactivity”.
As for “QVQLVESGGGLVQAGGSLRLSCAASGFIFNWNTMGWYRQAPGKERELVATMTGSGGSTYADSVKGRFTISRDNAKNTVYLQMNSLKPEDTAVYYCAATRRSFHKYDYWGQGTQVTVSS”, the “polyreactivity (PSR sort gate)” value is “low polyreactivity”.
The value for “QVQLVESGGGLVQAGGSLRLSCAASGFIFNYNAMGWYRQAPGKERELVAAISGTGVRTYYADSVKGRFTISRDNAKNTVYLQMNSLKPEDTAVYYCNAYYGYIPVSGYRNDYWGQGTQVTVSS” was “low polyreactivity”.

Values taken from the nanobody polyreactivity screen of Harvey et al. (2022).
